Measured values: patent US20220177575A1 (MAGENTA THERAPEUTICS, published 2022)

Molecular target: T1, Human CD117 antigen (human, UniProt P10721 26-520)
T1 construct: also called c-kit; Stem Cell Factor Receptor
Test: chemical cross-linking, High-Mass MALDI MS and nLC-Orbitrap MS of the complex

T1 sequence (P10721 other isoform, or with tags, fused parts or gaps limits assumed): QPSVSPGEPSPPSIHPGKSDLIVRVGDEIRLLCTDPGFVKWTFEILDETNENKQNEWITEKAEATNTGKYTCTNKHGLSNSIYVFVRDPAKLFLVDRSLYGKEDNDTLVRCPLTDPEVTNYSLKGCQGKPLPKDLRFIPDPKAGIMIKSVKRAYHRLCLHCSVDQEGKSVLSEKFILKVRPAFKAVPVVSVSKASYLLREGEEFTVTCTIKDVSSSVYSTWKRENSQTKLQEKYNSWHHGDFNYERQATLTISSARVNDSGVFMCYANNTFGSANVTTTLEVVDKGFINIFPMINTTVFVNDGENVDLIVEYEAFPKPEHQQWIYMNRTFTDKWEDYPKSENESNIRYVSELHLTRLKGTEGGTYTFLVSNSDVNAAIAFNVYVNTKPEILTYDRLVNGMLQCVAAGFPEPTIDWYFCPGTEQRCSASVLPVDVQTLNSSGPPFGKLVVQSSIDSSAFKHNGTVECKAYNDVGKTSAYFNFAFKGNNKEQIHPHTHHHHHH

B1: anti-CD117 antibody 85 (Ab85) (antibody, V domains shown)
VH: EVQLVQSGAEVKKPGESLKISCKGSGYSFTNYWIGWVRQMPGKGLEWMAIINPRDSDTRYRPSFQGQVTISADKSISTAYLQWSSLKASDTAMYYCARHGRGYEGYEGAFDIWGQGTLVTVSS
VL: DIQMTQSPSSLSASVGDRVTITCRSSQGIRSDLGWYQQKPGKAPKLLIYDASNLETGVPSRFSGSGSGTDFTLTISSLQPEDFATYYCQQANGFPLTFGGGTKVEIK
notes: Human antibody derived from CK6; also called Antibody HC-85/LC-85
binding result: binds
